The series has as its target T1, OgeuIscB ΔHNH (human gut metagenome (OgeuIscB), UniProt PDB:7XHT_4 1-198+=GGSG+296-496, internal_change).
T1 sequence: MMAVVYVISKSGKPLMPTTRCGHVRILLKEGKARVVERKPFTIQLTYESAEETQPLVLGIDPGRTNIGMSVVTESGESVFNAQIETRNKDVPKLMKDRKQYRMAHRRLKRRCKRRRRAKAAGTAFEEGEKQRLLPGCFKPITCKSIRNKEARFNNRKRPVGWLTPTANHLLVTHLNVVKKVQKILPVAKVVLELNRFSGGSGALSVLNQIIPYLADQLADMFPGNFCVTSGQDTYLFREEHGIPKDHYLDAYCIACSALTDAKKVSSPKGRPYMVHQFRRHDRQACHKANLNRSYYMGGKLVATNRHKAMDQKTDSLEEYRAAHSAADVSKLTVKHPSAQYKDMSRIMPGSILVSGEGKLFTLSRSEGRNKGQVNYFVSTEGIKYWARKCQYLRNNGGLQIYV
Kind of series: cryo-EM (2.6 Å); Mg2+ bound in RuvC site; Purification: 20 mM Tris-HCl pH 8.0, NaCl gradient 0.075-2 M (heparin), 10% glycerol, 5 mM MgCl2, 2 mM DTT; cryo-EM sample buffer not in the material. As to conditions: protein: recombinant; strand 1 ωRNA, strand 2 TS, strand 3 NTS; NTS pairs with TS nt 1-14; ωRNA guide nt 1-27 complementary to TS nt 15-41 (17 bp resolved); TS 3' tail 8 nt.

B1: ωRNA (233 nt) + partially double-stranded target DNA (TS 49 nt, NTS 14 nt) (mixed)
RNA: GGAAUUGUGAGCGGAUAACAAUUCCCCGGCUCUUCCAACUUUAUGGUUGCGACCGUAGGUUGAAAGAGCACAGGCUGAGACAUUCGUAAGGCCGAAAGACCGGACGCACCCUGGGAUUUCCCCAGUCCCCGGAACUGCAUAGCGGAUGCCAGUUGAUGGAGCAAUCUAUCAGAUAAGCCAGGGGGAACAAUCACCUCUCUGUAUCAGAGAGAGUUUUACAAAAGGAGGAACGG
DNA 1: GAATGGTTTTCTTCGGGGAATTGTTATCCGCTCACAATTCCTTAGAAAA
DNA 2: GAAGAAAACCATTC
As to B1, the binding result is “binds”.

Values taken from article PMC9640706, “Structure of the IscB–ωRNA ribonucleoprotein complex, the likely ancestor of CRISPR-Cas9”.
